B1: TN36-3 (antibody, human IgG1, V domains shown)
VH: EVQLVESGGGLIQPGGSLRLSCAASGFSLSSSAVSWVRQAPGKGLEWIGAIGSGGTSYYSNWAKSRFTISRDNSKNTLYLQMNSLRAEDTAVYYCARDPNSSDYPYGAYGMGLWGRGTLVTVSS
VL: DIQMTQSPSSLSASVGDRVTITCQVSQSISSYLSWYQQKPGKPPKLLIYYASTLASGVPSRFSGSGSGTDFTLTISSLQPEDFATYYCQQGYITSNVGNAFGGGTKVEIK
notes: Humanized; also called AL2/AL9
B2: TN36-5 (antibody, human IgG1, V domains shown)
VH: B1 VH
VL: B1 VL with M4L, S10F, P43A, D70E
notes: Humanized; also called AL2/AL11
B3: TN36-21 (antibody, human IgG1, V domains shown)
VH: B1 VH with I12V, R116P
VL: B1 VL with M4L, S10F, P43A, D70E
notes: Humanized; also called AL6/AL11
B4: TN36-20 (antibody, human IgG1, V domains shown)
VH: B1 VH with I12V, R116P
VL: B1 VL with S10F, P43A
notes: Humanized; also called AL6/AL10
B5: TN36-8 (antibody, human IgG1, V domains shown)
VH: B1 VH with Y94F
VL: B1 VL with S10F, P43A
notes: Humanized; also called AL3/AL10
B6: TN36-4 (antibody, human IgG1, V domains shown)
VH: B1 VH
VL: B1 VL with S10F, P43A
notes: Humanized; also called AL2/AL10
B7: TN36-7 (antibody, human IgG1, V domains shown)
VH: B1 VH with Y94F
VL: B1 VL
notes: Humanized; also called AL3/AL9
B8: TN36-6 (antibody, human IgG1, V domains shown)
VH: B1 VH with Y94F
VL: B1 VL with P43A
notes: Humanized; also called AL3/AL8
B9: TN36-9 (antibody, human IgG1, V domains shown)
VH: B1 VH with Y94F
VL: B1 VL with M4L, S10F, P43A, D70E
notes: Humanized; also called AL3/AL11

Residue numbers refer to the chain shown, from its start.

In one assay the target is T1, Human TNFR1 (Acro Biosystem, TN1-H5222) (human, UniProt P19438 30-211).
T1 construct: Bought protein; also called TNF receptor type 1; CD120a
T1 sequence (looked up): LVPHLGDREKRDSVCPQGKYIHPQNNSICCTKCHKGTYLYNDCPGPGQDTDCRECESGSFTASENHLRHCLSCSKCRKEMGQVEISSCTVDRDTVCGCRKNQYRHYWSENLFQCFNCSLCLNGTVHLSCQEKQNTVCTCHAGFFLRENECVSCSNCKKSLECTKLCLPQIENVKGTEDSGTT
The assay is described as follows: ELISA, receptor coated at 1 µg/mL. As for the experimental part:
(§1) Human TNFR2 (Acro Biosystem, TN2-H5227), Human TNFR1 (Acro Biosystem, TN1-H5222), Cynomolgus TNFR2 (Sino Biological, 90102-CO8H) or mouse TNFR2 (R&D systems, 426-R2-050/CF) was coated on high binding polystyrene flat bottom micro-titer plates (Thermo Scientific, 3455) in PBS (PH=7.4, Gibco,10010-031) at 1 μg/mL and 100 μL per well. Plates were incubated at 4° C. overnight.
(§2) Plates were warmed up to room temperature the next day and washed with 200 μL PBS containing 0.1% Tween 20 (Life technologies, 003005) per well for 3 times. Plates were blocked with 200 μL PBS buffer containing 1% BSA (Fisher Scientific, BP1600-100) per well for 1 hour at 37° C. Antibodies was titrated from 5 μg/mL in a 5-fold dilution series, distributed 100 μL per well and incubated at 37° C. for 1 hour. Human IgG1 isotype control (BioxCell, BE0297) was used as negative control. Plates were washed with 200 μL PBS containing 0.1% Tween 20 (Life technologies, 003005) per well for 3 times. Goat anti-Human IgG Fc Secondary Antibody-HRP conjugate (Invitrogen, A18817) were distributed at 0.5μg/mL and 100 μL per well to detect bound antibodies. After 1-hour incubation of secondary antibody at 37° C., plates were washed with 200 μL PBS containing 0.1% Tween 20 (Life technologies, 003005) per well for 3 times. Plates were developed using TMB Substrate Solution (eBioscience, 00-4201-56) and stopped with ELISA stop solution (Invitrogen, SSO4). The level of bound antibodies was determined by reading absorbance at 450 nm. Mouse anti-human TNFR1 antibody (ThermoFisher Scientific, MA1-81005) and goat anti mouse IgG secondary antibody-HRP conjugate (Invitrogen, 62-5520) were used as positive control for human TNFR1 detection. Armenian Hamster anti-mouse TNFR2 antibody (InVivoMab, BE0247) and HRP-Goat anti-Armenian Hamster IgG (H+L) Secondary Antibody (Invitrogen, PA1-32045) were used as positive control for mouse TNFR2 detection.
On to B1, for which the binding result was “no binding (tested: titrated from 5 µg/mL)”.

Consider B2, for which the binding result is listed as “no binding (tested: titrated from 5 µg/mL)”.

In the case of B3, the binding result was “no binding (tested: titrated from 5 µg/mL)”.

In the case of B4, the binding result is recorded as “no binding (tested: titrated from 5 µg/mL)”.

Regarding B5, the binding result is listed as “no binding (tested: titrated from 5 µg/mL)”.

For B6, the binding result is “no binding (tested: titrated from 5 µg/mL)”.

B7: the binding result is listed as “no binding (tested: titrated from 5 µg/mL)”.

With B8, the binding result is “no binding (tested: titrated from 5 µg/mL)”.

As to B9, the binding result is reported as “no binding (tested: titrated from 5 µg/mL)”.

In another assay the target is T2, mouse TNFR2 (R&D systems, 426-R2-050/CF) (mouse, UniProt P25119 23-258).
T2 construct: Bought protein
T2 sequence (looked up): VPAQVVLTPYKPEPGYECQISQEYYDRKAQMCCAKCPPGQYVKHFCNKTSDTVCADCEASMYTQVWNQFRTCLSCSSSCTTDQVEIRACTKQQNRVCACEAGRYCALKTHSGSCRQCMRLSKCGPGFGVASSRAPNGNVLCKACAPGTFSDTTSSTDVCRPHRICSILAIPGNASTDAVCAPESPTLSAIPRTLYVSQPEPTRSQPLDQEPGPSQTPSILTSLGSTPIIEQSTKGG
As to the kind of experiment: ELISA, receptor coated at 1 µg/mL. The method, then: as §1, §2
(In general: In an ELISA, binding on a coated surface is turned into a signal by an enzyme label.)
On to B1, for which the binding result was “no binding (tested: titrated from 5 µg/mL)”.

As for B2, the binding result is on record as “no binding (tested: titrated from 5 µg/mL)”.

B3: the binding result was “no binding (tested: titrated from 5 µg/mL)”.

On to B4, for which the binding result is on record as “no binding (tested: titrated from 5 µg/mL)”.

With B5, the binding result is listed as “no binding (tested: titrated from 5 µg/mL)”.

As to B6, the binding result was “no binding (tested: titrated from 5 µg/mL)”.

For the molecule B7, the binding result is reported as “no binding (tested: titrated from 5 µg/mL)”.

Take B8: the binding result was “no binding (tested: titrated from 5 µg/mL)”.

With B9, the binding result is recorded as “no binding (tested: titrated from 5 µg/mL)”.

A further assay deals with T3, rat TNFR2 (R&D systems, 8348-R2-050) (rat, UniProt Q80WY6 23-258).
T3 construct: Bought protein
T3 sequence (looked up): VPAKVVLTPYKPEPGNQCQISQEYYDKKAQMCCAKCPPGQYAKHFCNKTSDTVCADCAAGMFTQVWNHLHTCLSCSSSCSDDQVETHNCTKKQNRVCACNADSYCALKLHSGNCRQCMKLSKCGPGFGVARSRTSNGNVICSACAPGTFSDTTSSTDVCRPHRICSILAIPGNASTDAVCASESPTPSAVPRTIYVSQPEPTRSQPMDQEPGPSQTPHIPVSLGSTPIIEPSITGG
The assay is described as follows: ELISA, receptor coated at 1 µg/ml. As for the experimental part: Plates were incubated at 4° C. overnight. Antibodies was titrated from 100 μg/ml in a 5-fold dilution series, and distributed 100 μL, per well and incubated at 37° C. for 1 hour. Human IgG1 isotype control (BioxCell, BE0297) was used as negative control. TNFR2 Polyclonal Antibody (Invitrogen, PAS-80159) and HRP conjugated Goat anti-Rabbit IgG Fc Secondary Antibody (Invitrogen, A16116) were used as positive control for rat TNFR2 detection.
Take B1: the binding result is recorded as “no binding (tested: titrated from 100 µg/ml)”.

Take B2: the binding result is recorded as “no binding (tested: titrated from 100 µg/ml)”.

With B3, the binding result is on record as “no binding (tested: titrated from 100 µg/ml)”.

B4: the binding result was “no binding (tested: titrated from 100 µg/ml)”.

Take B5: the binding result was “no binding (tested: titrated from 100 µg/ml)”.

As for B6, the binding result was “no binding (tested: titrated from 100 µg/ml)”.

Turning to B7, the binding result is given as “no binding (tested: titrated from 100 µg/ml)”.

Turning to B8, the binding result is “no binding (tested: titrated from 100 µg/ml)”.

With B9, the binding result is “no binding (tested: titrated from 100 µg/ml)”.

A further assay deals with T4, His tagged human TNFR2 ECD (Acro Biosystem, TN2-H5227) (human, UniProt P20333 23-257).
T4 construct: extracellular domain; Bought protein; also called TNFR2-His; hTNFR2-His; not shown: His tag
T4 sequence (looked up): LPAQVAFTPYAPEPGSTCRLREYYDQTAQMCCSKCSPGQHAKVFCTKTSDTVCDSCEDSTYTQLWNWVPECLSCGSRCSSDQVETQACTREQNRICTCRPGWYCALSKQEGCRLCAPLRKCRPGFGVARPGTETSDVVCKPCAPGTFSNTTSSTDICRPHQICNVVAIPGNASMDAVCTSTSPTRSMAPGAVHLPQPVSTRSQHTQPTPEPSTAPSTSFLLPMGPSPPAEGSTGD
The assay is described as follows: ELISA, receptor coated at 1 µg/mL, antibody titrated from 5 µg/mL. As for the experimental part:
as §1, §2
Turning to B1, the binding result is “binds”.

Take B2: the binding result is reported as “binds”.

B5: the binding result is “binds”.

Turning to B6, the binding result was “binds”.

B7: the binding result is on record as “binds”.

For the molecule B8, the binding result is “binds”.

As for B9, the binding result is reported as “binds”.

The target in another assay is T5, Full length human TNFR2 on Jurkat E6-1 cells (Clone NO.3) (human, UniProt P20333 23-461).
T5 construct: whole, on cells; also called human TNFR2+ Jurkat cells; hTNFR2 Jurkat
T5 sequence (looked up): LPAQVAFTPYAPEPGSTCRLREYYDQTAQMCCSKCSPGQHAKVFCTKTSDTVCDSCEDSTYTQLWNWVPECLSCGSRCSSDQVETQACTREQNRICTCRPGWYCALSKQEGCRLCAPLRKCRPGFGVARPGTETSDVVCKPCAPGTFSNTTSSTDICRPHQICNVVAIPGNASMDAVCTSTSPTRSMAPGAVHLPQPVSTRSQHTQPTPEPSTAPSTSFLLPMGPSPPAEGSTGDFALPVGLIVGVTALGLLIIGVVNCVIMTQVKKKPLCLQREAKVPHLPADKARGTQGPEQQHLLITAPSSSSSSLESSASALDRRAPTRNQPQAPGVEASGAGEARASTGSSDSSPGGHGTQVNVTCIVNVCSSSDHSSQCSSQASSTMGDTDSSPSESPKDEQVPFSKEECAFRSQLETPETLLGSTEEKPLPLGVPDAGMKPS
The assay is described as follows: FACS on human TNFR2+ Jurkat Clone No.3, biotinylated antibody with streptavidin-PE. The method, then: FACS analysis was used to evaluate the binding of purified anti-TNFR2 antibody candidates produced from example 6 to cell surface TNFR2 target. Anti-human TNFR2 antibodies and negative control IgG were biotinylated using a EZ-Link™ Micro Sulfo-NHS-Biotinylation Kit (Thermo Fisher Scientific, 21925) according to manufacturer's instructions. Biotinylated antibodies (100 μg/mL) were then incubated with Halt™ Protease Inhibitor Cocktail (100X, Thermo Scientific, 1862209) and 80 μg/mL Streptavidin-R-Phycoerythrin (PE) conjugate (Invitrogen, S21388). Antibodies were stored at 4° C. until use. 5×10⁵ Clone No.3 of human TNFR2⁺ Jurkat cells were distributed each well and blocked with human TruStain FcX™ (Biolegend, 422302) for 10 minutes at room temperature before stained with a serially diluted PE conjugated anti-human TNFR2 antibodies or hIgG1 starting from 50 μg/mL in a 5-fold dilution fashion for 30 minutes at 4° C. PE-anti hTNFR2 (Clone MR2-1, Thermo fisher #TNFR7504) was used as positive control. The geometric mean fluorescent intensity was measured on Sony SA3800 cell analyzer. Data were analyzed using Flowjo Software (Tree star Inc).
As for B1, the binding result is given as “binds”.

As to B2, the binding result is on record as “binds”.

Regarding B5, the binding result was “binds”.

B6: the binding result is “binds”.

Regarding B7, the binding result is “binds”.

On to B8, for which the binding result was “binds”.

For B9, the binding result is reported as “binds”.

These data come from US20240043551A1 (ADLAI NORTYE BIOPHARMA, published 2024).
